Results reported in patent publication US12366572B2, “Activation of bioluminescence by structural complementation” (Promega Corporation, priority 2013, dated 2025).

Tests used:
[1] = Substrate specificity of NLpoly 5P and 11S with NLpep79 (Example 97); format: biochemical
Experimental: E. coli clarified lysates were prepared for NLpoly 5P or 11S as described previously. The NLpoly lysates were then serially diluted in steps of 10-fold into PBS+0.1% Prionex.

[2] = tested on: wt Oplophorus 157-169 peptide; test: Relative specific activity in HEK293T lysates (Example 143); format: biochemical; conditions: averages of Vmax and Bmax normalized to NanoLuc
Experimental: Each clone was inserted into pFN21A HaloTag® CMV Flexi® Vector (Promega G2821), and lysates were prepared as follows: 3 ml HEK293T cells that have been diluted to a concentration of 200,000 cells/ml (600,000 cells total) were plated into each well of a 6-well plate and grown overnight at 37° C. in a CO2 incubator. The following day transfection complexes of each DNA were prepared by combining […] of DNA, Opti-MEM® (Life Technologies 11058-021) to a final volume of 310 μl and 20 μl of FuGENE® HD (Promega E231a). The transfection complexes were incubated for 20 minutes and then 150 μl of each complex added in duplicate to cells. The cells were grown overnight 37° C. in a CO2 incubator. The following day, the cells were washed cells with DPBS (Life Technologies 14190-144), and 1 ml fresh DPBS added. Cells were frozen to lyse and then thawed for testing. Duplicate transfection reactions lysates were combined.
In order to compare the specific activities of Nluc (full length enzyme) to wt Oplophorusl-156 and NLpoly11S in combination with wt Oplophorus 157-169 peptide (binary proteins), substrate titrations were run for all of the samples, but for the binary samples substrate titrations were run at multiple peptide concentrations. Using this format, it was possible to calculate a Vmax value for Nluc and both Vmax and Bmax values for NLpoly11S and wt Oplophorus 1-156. Three separate experiments were run using this format and Vmax and Bmax values were normalized to the Vmax of NanoLuc. Relative specific activities (calculated as averages of Vmax and Bmax) are normalized to NanoLuc.

[3] = Luminescence of NLpoly without NLpep, E. coli clarified lysate (Example 57); format: biochemical; conditions: E. coli clarified lysate + NanoGlo+Fz
Experimental: 50 μL of each lysate and 50 uL NanoGlo+Fz were mixed and incubated for 5 min RT. Luminescence was measured on GloMax® Multi+ with 0.5 sec integration.

NLpep78-HT or NLpep79-HT = test: Luminescence of NLpoly variants without NLpep or with NLpep78-HT / NLpep79-HT (Example 93); format: biochemical; conditions: E. coli expression culture
[…] peptide [4] = target: T1, […] peptide (Oplophorus gracilirostris, UniProt Q9GV45); test: Non-luminescent polypeptide mutant luminescence after complementation with peptide (Example 5, Table 4); conditions: E. coli culture of polypeptide mutant + 1x peptide solution; NANOGLO reagent
[…] peptide [5] = target: T1, […] peptide; test: as above; conditions: E. coli culture of polypeptide mutant + 1x peptide solution; NANOGLO reagent; remark: listed apart in the source

| Molecule | Substrate specificity for furimazine [1] | Relative specific activity (*with wt 157-169 peptide) [2] | Luminescence in the absence of NLpep, higher than WT NLpoly [3] | Luminescence without NLpep or with NLpep78 or NLpep79 (NLpep78-HT or NLpep79-HT) | Luminescence with […] ([…] peptide [4]) | Luminescence with […] ([…] peptide [5]) |
| --- | --- | --- | --- | --- | --- | --- |
| 11S: evolved non-luminescent polypeptide variant 11S (12S-51) (protein) MVFTLEDFVGDWEQTAAYNLDQVLEQGGVSSLLQNLAVSVTPIQRIVRSGENALKIDIHVIIPYEGLSADQMAQIEEVFKVVYPVDDHHFKVILPYGTLVIDGVTPNMLNYFGRPYEGIAVFDGKKITVTGTLWNGNKIIDERLITPDGSMLFRVTINS | superior specificity for furimazine than 5P | 0.18* | ~500 fold | improved luminescence over the other variants |  |  |
| L149M (protein) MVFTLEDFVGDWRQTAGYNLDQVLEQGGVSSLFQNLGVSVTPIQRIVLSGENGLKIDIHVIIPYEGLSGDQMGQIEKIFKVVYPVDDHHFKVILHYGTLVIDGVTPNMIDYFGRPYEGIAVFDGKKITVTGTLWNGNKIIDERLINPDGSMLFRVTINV |  |  |  |  | 2.89 RLU(mutant)/RLU(WT) | 2.16 RLU(mutant)/RLU(WT) |
